We go through six molecules from US20180021429A1, “ANTICANCER AGENTS OR ANTIMETASTATIC AGENTS USING FSTL1 AND COMBINATION DRUG THEREOF” (PHARMA FOODS INTERNATIONAL CO., LTD., priority 2015, published 2018).

For this experiment, the system named is human pancreatic cancer cell line Panc1. Nature of the experiment: Inhibition of activation of tumor cells by FSTL1, Panc1 (Examples 5, 7, 9, 10, 11). Format: cell-based. How it is done:
It is known that tumor cells activated by stimulation with FSTL1 highly express molecule groups promoting bone metastasis and increase metastatic invasive capacity (Cancer Research 73: 6185, 2013). Thus, 2×10^7 cells/well of a human pancreatic cancer cell line Panc1 were suspended in 1 mL/well of D-MEM medium (GIBCO/Thermo Fisher Scientific Inc. Cat. No. C11885500BT) containing 10% fetal bovine serum, supplemented with 50 ng/mL (final concentration) of FSTL1 (R&D Systems, Inc.) and 10 μg/mL of the anti-FSTL1 antibody (#5-2, #5-8, #5-10, #5-43, #6-55, or #7-34) or its isotype mouse IgG (anti-DNP antibody) as a control antibody “Control”, and cultured under stimulation (6-well plate). 3 days thereafter, the number of cells was counted while the cells were stained with a PE-labeled anti-RANKL antibody (eBioscience Cat. No. 12-6619) and a PE-labeled anti-CCR2 antibody (R&D Systems, Inc. Cat. No. FAB151P) in order to examine the expression of markers indicating bone metastatic properties, and the contents of RANKL-positive cells and CCR2-positive cells were analyzed by flow cytometry using FACScan (Becton, Dickinson and Company) to calculate the numbers of cells per culture. […] Therefore, in Examples below, judgment was made with the number of cells as an index.
(§1) In the same way as in Example 5, a human pancreatic cancer cell line Panc1 was supplemented with 50 ng/mL (final concentration) of FSTL1 (R&D Systems, Inc.) and 10 μg/mL of the anti-FSTL1 antibody (the same clones as in Example 6) or a control antibody and cultured under stimulation. 3 days thereafter, the number of cells was counted while the cells were stained with a PE-labeled anti-RANKL antibody and a PE-labeled anti-CCR2 antibody, and the contents of RANKL-positive cells and CCR2-positive cells were analyzed by flow cytometry using FACScan (Becton, Dickinson and Company) to calculate the numbers of cells per culture (FIG. 99B).
as §1, with “20” for “50”, “FSTL1” for “FSTL1 (R&D Systems, Inc.)”, “(#5-2, #5-8, or #6-55)” for “(the same clones as in Example 6)”, “100B).” for “99B).”
as §1, with “FSTL1” for “FSTL1 (R&D Systems, Inc.)”, “(#5-2, #5-3, #6-55, #7-34, #8-1, #8-4, #8-7, or #8-8)” for “(the same clones as in Example 6)”, “culture.” for “culture (FIG. 99B).”
In the same way as in Example 5, a human pancreatic cancer cell line Panc1 was supplemented with 50 ng/mL (final concentration) of FSTL1 and 10 μg/mL of the anti-FSTL1 antibody (#6-55) or a control antibody and cultured under stimulation. 3 days thereafter, the number of cells was counted while the cells were stained with a PE-labeled anti-RANKL antibody and a PE-labeled anti-CCR2 antibody, and the contents of RANKL-positive cells and CCR2-positive cells were analyzed by flow cytometry using FACScan (Becton, Dickinson and Company) to calculate the numbers of cells per culture.

The mark [1] stands for this setting: Example 10: 50 ng/mL FSTL1, 10 μg/mL antibody, 3 days.
Where [2] appears, read: Example 9: 20 ng/mL FSTL1, 10 μg/mL antibody, 3 days, FIG. 100B.
Setting [3] is: Example 7: 50 ng/mL FSTL1, 10 μg/mL antibody, 3 days, FIG. 99B.

B1: #5-2: chicken-mouse chimeric anti-FSTL1 antibody clone; variable regions SEQ ID NO: 763 (light), 765 (heavy) (antibody, V domains shown)
VH: AVTLDESGGGLQTPGGGLSLVCKGSGFTFSSFNMFWVRQAPGKGLEWVAGVGKDGGTGYGAAVDGRATISKDNGQSTLRLQLNNLRAEDTGTYYCAKAAGGCSYGWCGSYVGDIDAWGHGTEVIVSS
VL: ASTQPSSVSANPGEAVKITCSGGSGSYYGWYQQKSPGSAPVTVIYNNNQRPSDIPSRFSGSKSGSTATLTITGVQAEDEAVYFCGGYDSSTGHGGIFGAGTTLTVL
modifications: mouse constant regions
Consider B1, for which the “inhibitory activity against the expansion of RANKL-positive cells and CCR2-positive cells” value (from here on “inhibitory activity”) under setting [1] is on record as “high inhibitory activity”.

B2: #6-55: chicken-mouse chimeric anti-FSTL1 antibody clone; variable regions SEQ ID NO: 783 (light), 785 (heavy) (antibody, V domains shown)
VH: AVTLDESGGGLQTPGGALSLVCKGSGFTFTSVTMQWVRQAPGKGLEWVASVCSGSSTYYAPAVKGRATISRDNGQSTVRLQLSNLRPEDTGTYYCAKIAGRARWSCTSAAYNIDAWGHGTEVIVSS
VL: ASTQPSSVSAIPGETVKITCSGGGNNYGWYQQRSPGSAPVTVIYYNDNRPSNIPSRFSGSTSGSTSTLTITGVQADDEAIYYCGSWDSNTDSGIFGAGTTLTVL
modifications: mouse constant regions
On to B2, for which the “inhibitory activity” value reads like this: under setting [2], “exhibited inhibitory activity”; (Example 11: 50 ng/mL FSTL1, at all tested doses (5, 10 and 20 μg/mL), no dose dependence, FIG. 100D) roughly 100%.

B3: #5-3: chicken-mouse chimeric anti-FSTL1 antibody clone; variable regions SEQ ID NO: 767 (light), 769 (heavy) (antibody, V domains shown)
VH: AVTLDESGGGLQTPGGALSLVCKGSGFSFSSFNMFWVRQAPGKGLEWVAGIGKDGVPKYGAAVDGRATISKDNGQSTMRLQLNNLRAEDTGTYFCAKAAGGCSYDWCGIYAGDIDTWGHGTEVIVSS
VL: ASTQPSSVSANPGETVKITCSGGSGYYYGWYQQKSPGSVPVTVIYNNNNRPSDIPSRFSGSKSGSTGTLTITGVRAEDEAVYYCGGYDNSGTGIFGAGTTLTVL
modifications: mouse constant regions
As for B3, the “inhibitory activity” value under setting [3] was “higher inhibitory activity”.

B4: #8-7: chicken-mouse chimeric anti-FSTL1 antibody clone; variable regions SEQ ID NO: 799 (light), 801 (heavy) (antibody, V domains shown)
VH: AVTLDESGGGLQTPGGGLSLVCKGSGFTFSSFNMFWVRQAPGKGLEWVAGIGKDGVPKYGAAVDGRATISKDNGQSTLRLQLNNLRAEDTGTYFCAKAAGGCSYDWCGIYAGDIDTWGHGTEVIVSS
VL: ASTQPSSVSANPGEAVKITCSGGSGSYYGWYQQKSPGSAPVTVIYNNNQRPSDIPSRFSGSKSGSTATLTITGVQAEDEAVYFCGGYDSSTGHGGIFGAGTTLTVL
modifications: mouse constant regions
Take B4: the “inhibitory activity” value under setting [1] is reported as “high inhibitory activity”.

B5: #8-4: chicken-mouse chimeric anti-FSTL1 antibody clone; variable regions SEQ ID NO: 795 (light), 797 (heavy) (antibody, V domains shown)
VH: AVTLDESGGGLQTPGGGLSLVCKGSGFTLSSFNMFWVRQAPGKGLEWVAGVGKDGGTAYGAAVDGRATISRDSGQSTVRLQLNNLRAEDTGTYFCAKAAGGCSYSWCGAYVGDLDAWGHGTEVIVSS
VL: ASSQPSSVSANPGETVKITCSGGSGYYYGWYQQKSPGSAPVTVIYNNDNKPSDIPSRFSGSKSGSTGTLTITGVQVEDEAVYFCGGYDNSGTGIFGAGTTLTVL
modifications: mouse constant regions
On to B5, for which the “inhibitory activity” value under setting [1] is “high inhibitory activity”.

B6: #5-8: chicken-mouse chimeric anti-FSTL1 antibody clone; variable regions SEQ ID NO: 771 (light), 773 (heavy) (antibody, V domains shown)
VH: AVTLDESGGGLQTPGGGLSLVCKGSGFTFSSFNMFWVRQAPGKGLEWVAGIGKDGVPKYGTAVDGRATISKDNGQSTMRLQLNNLRAEDTGTYFCAKAAGGCSYDWCGIYTGDIDTWGHGTEVIVSS
VL: ASTQPSSVSANPGEAVKITCSGGSGSYYGWYQQKSPGSAPVTVIYNNNQRPSDIPSRFSGSKSGSTATLTITGVQAEDEAVYFCGGYDSSTGHGGIFGAGTTLTVL
modifications: mouse constant regions
In the case of B6, the “inhibitory activity” value was “higher inhibitory activity” under setting [3] and “exhibited inhibitory activity” under setting [2].
